Test results published in PMC4755954, “Impact of clinically tested NEP/ACE inhibitors on tumor uptake of [^111In-DOTA]MG11—first estimates for clinical translation” (EJNMMI Research, 2016).
Square brackets hold non-standard residues; d marks the D form. Peptide text beside a SMILES is read from it. * marks the point of attachment. DOTA = O=C(O)CN1CCN(CC(=O)O)CCN(CC(=O)*)CCN(CC(=O)O)CC1

Assays:
[1] = iv infusion of 150 mg in 250 mL of isotonic glucose in 42 patients; cited from earlier work
Source text: Aiming at clinical translation, our interest has been attracted by two clinically certified NEP inhibitors, TO and its prodrug Race. TO is a potent, reversible NEP inhibitor with a relative rapid onset of action, but its water solubility is not ideal for iv injection as a bolus together with the radiopeptide. […] The impact of TO on the bioavailability and tumor uptake of our paradigm compound [^111In-DOTA] ...

in vivo [2] = assay: in vivo; set-up: species or system SCID mice; settings: male, SCID, mouse, iv, 10 pmol total peptide, total radioactivity, %ID/g tissue ± SD
Procedure: In-house male SCID mice (NCSR “Demokritos” Animal House) of 6 weeks of age at the time of arrival (18 ± 2 g body weight) were inoculated subcutaneously (sc) in their flanks with a suspension of freshly harvested AR42J cells (1 × 10^7 cells in ~150 μL saline). Animals were kept in aseptic conditions for 14 days when well-palpable tumors developed at the inoculation sites (0.31 ± 0.17 g). At the day of biodistribution, animals received a bolus of [^111In-DOTA]MG11 (100 μL, 37–74 kBq, 10 pmol total peptide, in saline/EtOH 9/1 v/v) through the tail vein, coinjected with (a) vehicle (100 μL; control group, n = 10), (b) PA (100 μL of vehicle containing 300 μg PA; PA group, n = 10), (c) TO (100 μL of vehicle containing 150 μg TO; TO group, n = 4), (d) Lis (100 μL of vehicle containing 100 μg Lis; Lis group, n = 4), (e) PA plus Lis (100 μL vehicle containing 300 μg PA and 100 μg Lis; PA+Lis group, n = 5), or (f) 30–40 min after ip injection of Race (3 mg Race dissolved in 0.025 mL DMSO and freshly mixed with 0.375 mL saline; Race group, n = 4). In a separate animal group, the mice were coinjected with 100 μL vehicle containing both 300 μg PA and 100 μg DG2 [25] to assess non-specific tumor uptake during in situ NEP inhibition (in vivo CCK2R blockade; block group, n = 4).
(§1) Mice had access to drinking water ad libitum until they were euthanized at 4 h pi. Blood samples, organs of interest, and tumors were collected immediately after dissection, weighted, and measured for radioactivity in the gamma counter; only stomachs were emptied of their contents prior to measurements. Biodistribution data were calculated as percent of injected dose per gram tissue (% ID/g) with the aid of suitable standards of the injected dose, using the GraphPad Prism Software (San Diego, CA).

in vivo [3] = assay: in vivo; set-up: species or system SCID mice; settings: male, SCID, mouse, iv, 10 pmol total peptide, total radioactivity, %ID/g tissue ± SD; remark: listed apart in the source
Procedure: as §1
Inocula of freshly harvested A431-CCK2R(+/−) cells (1.6 × 10^7/1.4 × 10^7 cell suspensions in 150 μL saline) were sc-injected in the right and left flanks of the SCID mice (male SCID mice, 6 weeks of age and of 18 ± 2 g body weight on arrival day; NCSR “Demokritos” Animal House). The animals were kept in aseptic conditions for 8 days till well-palpable tumors (0.26 ± 0.08 g) developed at the inoculation sites. At the day of the experiment, the mice received a bolus of [^111In-DOTA]MG11 (100 μL, 37–74 kBq, 10 pmol total peptide, in saline/EtOH 9/1 v/v) through the tail vein, coinjected with (a) vehicle (100 μL; control group, n = 5), (b) three different doses of PA (3 μg, n = 5; 30 μg, n = 4; or 300 μg PA, n = 10, dissolved in 100 μL vehicle), and (c) three different doses of TO (1.5, 15, or 150 μg TO dissolved in 100 μL vehicle, all groups of n = 4). Mice had free access to drinking water until they were sacrificed at 4 h pi, and biodistribution was conducted as described above.

O=C(O)CNC(=O)C(CS)Cc1ccccc1 (racemic) [TO, DL-3-mercapto-2-benzylpropanoylglycine]
hemodynamic tolerance in human [1]: excellent hemodynamic tolerance

CSCC[C@H](NC(=O)[C@H](Cc1c[nH]c2ccccc12)NC(=O)CNC(=O)[C@H](Cc1ccc(O)cc1)NC(=O)[C@H](C)NC(=O)[C@@H](CCC(=O)O)NC(=O)CN1CCN(CC(=O)O)CCN(CC(=O)O)CCN(CC(=O)O)CC1)C(=O)N[C@@H](CC(=O)O)C(=O)N[C@@H](Cc1ccccc1)C(N)=O [[^111In-DOTA]MG11, metal not drawn] ({DOTA}-[dE]AYGWMDF-NH2)
tissue uptake at 4 h (in vivo [2]; Blood): 0.04 ± 0.01 %ID/g
tissue uptake at 4 h (in vivo [2]; Femur): 0.09 ± 0.05 %ID/g
tissue uptake at 4 h (in vivo [2]; Heart): 0.05 ± 0.02 %ID/g
tissue uptake at 4 h (in vivo [2]; Intestines): 0.89 ± 0.76 %ID/g
tissue uptake at 4 h (in vivo [2]; Kidneys): 1.86 ± 0.25 %ID/g
tissue uptake at 4 h (in vivo [2]; Liver): 0.13 ± 0.03 %ID/g
tissue uptake at 4 h (in vivo [2]; Lung): 0.07 ± 0.02 %ID/g
tissue uptake at 4 h (in vivo [2]; Muscle): 0.04 ± 0.01 %ID/g
tissue uptake at 4 h (in vivo [2]; Pancreas): 0.11 ± 0.03 %ID/g
tissue uptake at 4 h (in vivo [2]; Spleen): 0.17 ± 0.07 %ID/g
tissue uptake at 4 h (in vivo [2]; Stomach): 1.53 ± 0.65 %ID/g
tissue uptake at 4 h (in vivo [2]; Tumor (AR42J)): 1.82 ± 1.25 %ID/g
tissue uptake at 4 h (in vivo [3]; Blood): 0.01 ± 0.01 %ID/g
tissue uptake at 4 h (in vivo [3]; Femur): 0.02 ± 0.01 %ID/g
tissue uptake at 4 h (in vivo [3]; Heart): 0.02 ± 0.01 %ID/g
tissue uptake at 4 h (in vivo [3]; Intestines): 0.83 ± 0.53 %ID/g
tissue uptake at 4 h (in vivo [3]; Kidneys): 1.3 ± 0.29 %ID/g
tissue uptake at 4 h (in vivo [3]; Liver): 0.11 ± 0.02 %ID/g
tissue uptake at 4 h (in vivo [3]; Lung): 0.03 ± 0.01 %ID/g
tissue uptake at 4 h (in vivo [3]; Muscle): 0.02 ± 0.01 %ID/g
tissue uptake at 4 h (in vivo [3]; Pancreas): 0.05 ± 0.02 %ID/g
tissue uptake at 4 h (in vivo [3]; Spleen): 0.06 ± 0.01 %ID/g
tissue uptake at 4 h (in vivo [3]; Stomach): 1.32 ± 0.26 %ID/g
tissue uptake at 4 h (in vivo [3]; Tumor (+) (A431-CCK2R(+))): 2.5 ± 0.92 %ID/g
tissue uptake at 4 h (in vivo [3]; Tumor (−) (A431-CCK2R(−))): 0.12 ± 0.02 %ID/g
